Measured values as given in article PMC5737801 (Nucleic Acids Research, 2017).
Positions count from the first letter of the chain named. Names may count otherwise.

T1: GST-TyrRS E196K fusion protein, full length (human, UniProt P54577 1-528, E196K)
T1 sequence: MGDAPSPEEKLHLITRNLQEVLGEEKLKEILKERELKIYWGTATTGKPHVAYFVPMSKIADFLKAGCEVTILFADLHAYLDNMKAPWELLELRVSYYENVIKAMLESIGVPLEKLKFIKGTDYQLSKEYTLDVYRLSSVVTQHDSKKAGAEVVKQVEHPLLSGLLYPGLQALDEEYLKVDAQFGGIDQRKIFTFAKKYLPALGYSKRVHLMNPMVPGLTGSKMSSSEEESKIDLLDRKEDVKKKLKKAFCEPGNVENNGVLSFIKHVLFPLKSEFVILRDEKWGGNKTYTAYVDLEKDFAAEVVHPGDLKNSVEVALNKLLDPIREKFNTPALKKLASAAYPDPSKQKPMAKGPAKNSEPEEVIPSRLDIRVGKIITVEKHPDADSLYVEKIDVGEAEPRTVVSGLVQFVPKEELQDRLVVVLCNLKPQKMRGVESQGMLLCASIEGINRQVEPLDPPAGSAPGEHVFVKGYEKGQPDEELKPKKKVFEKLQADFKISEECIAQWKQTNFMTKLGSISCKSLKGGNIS

T2: GST-TyrRS fusion protein, wild type, full length (human, UniProt P54577 1-528)
T2 sequence: T1 sequence with K196E

T3: GST-TyrRS Δ153-156 fusion protein, full length (human, UniProt P54577 1-528, Δ153-156VKQV)
T3 sequence: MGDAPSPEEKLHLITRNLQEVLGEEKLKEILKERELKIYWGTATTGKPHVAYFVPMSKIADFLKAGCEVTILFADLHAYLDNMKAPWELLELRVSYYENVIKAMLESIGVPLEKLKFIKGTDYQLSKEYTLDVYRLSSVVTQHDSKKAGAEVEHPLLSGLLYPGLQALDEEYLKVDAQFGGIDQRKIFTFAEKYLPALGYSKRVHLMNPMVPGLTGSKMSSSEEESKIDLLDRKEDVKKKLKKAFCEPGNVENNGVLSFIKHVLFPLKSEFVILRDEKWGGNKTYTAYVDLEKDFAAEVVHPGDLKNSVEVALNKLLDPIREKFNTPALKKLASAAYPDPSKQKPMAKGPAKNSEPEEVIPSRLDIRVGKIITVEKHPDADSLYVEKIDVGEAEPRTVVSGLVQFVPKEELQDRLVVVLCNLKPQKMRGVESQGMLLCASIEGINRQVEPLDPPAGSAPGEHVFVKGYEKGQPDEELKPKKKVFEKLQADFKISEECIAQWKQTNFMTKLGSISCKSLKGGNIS

B1: full-length tyrosyl-tRNA synthetase G41R mutant (TyrRS^G41R), C-terminal hexahistidine tag (enzyme)
chain: T1 sequence with G41R, K196E
B2: full-length tyrosyl-tRNA synthetase, wild type (TyrRS^WT), C-terminal hexahistidine tag (enzyme)
chain: T1 sequence with K196E
B3: full-length tyrosyl-tRNA synthetase E196K mutant (TyrRS^E196K), C-terminal hexahistidine tag (enzyme)
chain: T1 sequence
B4: full-length tyrosyl-tRNA synthetase Δ153-156 deletion mutant (TyrRS^Δ153-156), C-terminal hexahistidine tag (enzyme)
chain: T3 sequence
B5: RBCC (aa 65–378 of TRIM28) (domain or fragment)
chain: CGVCRERLRPEREPRLLPCLHSACSACLGPAAPAAANSSGDGGAAGDGTVVDCPVCKQQCFSKDIVENYFMRDSGSKAATDAQDANQCCTSCEDNAPATSYCVECSEPLCETCVEAHQRVKYTKDHTVRSTGPAKSRDGERTVYCNVHKHEPLVLFCESCDTLTCRDCQLNAHKDHQYQFLEDAVRNQRKLLASLVKRLGDKHATLQKSTKEVRSSIRQVSDVQKRVQVDVKMAILQIMKELNKRGRVLVNDAQKVTEGQQERLERQHWTMTKIQKHQEHILRFASWALESDNNTALLLSKKLIYFQLHRALKM

Experiments:
[1] = target: the molecule itself; experiment: SAXS
[2] = target: the molecule itself; experiment: SEC
[3] = target: T1, GST-TyrRS E196K fusion protein, full …; experiment: BLI
[4] = target: T2, GST-TyrRS fusion protein, wild type, …; experiment: BLI
[5] = target: T3, GST-TyrRS Δ153-156 fusion protein, full …; experiment: BLI

| Binder | stoichiometry N [1] | Kd [2] [nM] | further results |
| --- | --- | --- | --- |
| B1 | 2 | ~200 |  |
| B2 |  | ~200 |  |
| B3 | 2 |  |  |
| B4 |  | ~200 |  |
| B5 |  |  | fold increase in binding affinity against TyrRS^WT [3]: 5 fold; binding result [4]: binds; fold increase in binding affinity against TyrRS^WT [5]: 5 fold |
